# Test results taken from EP3330286A1.
# Legend:
# Experiment in all cases: indirect ELISA, antigen coated, negative control
# [1] = target: mixture of MPB70 and MPB83 recombinant proteins
# [2] = target: bovine tuberculin purified protein derivative (PPDb)
# [3] = target: MPB70 recombinant protein (Mycobacterium bovis) (UniProt P0A669)
# [4] = target: p10 protein (ESAT-6) (Mycobacterium bovis) (UniProt P0A565)
# [5] = target: p22 immunogenic composition
# [6] = target: MPB83 recombinant protein (Mycobacterium bovis) (UniProt P0CAX7)
# Chain of UniProt P0CAX7 (P0CAX7 25-220 limits assumed): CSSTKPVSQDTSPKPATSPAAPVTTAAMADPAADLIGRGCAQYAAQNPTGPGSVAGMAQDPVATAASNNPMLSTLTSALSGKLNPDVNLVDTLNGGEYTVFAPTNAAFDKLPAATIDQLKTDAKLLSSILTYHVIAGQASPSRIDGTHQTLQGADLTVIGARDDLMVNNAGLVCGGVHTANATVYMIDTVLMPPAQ
# Chain of UniProt P0A669 (P0A669 31-193 limits assumed): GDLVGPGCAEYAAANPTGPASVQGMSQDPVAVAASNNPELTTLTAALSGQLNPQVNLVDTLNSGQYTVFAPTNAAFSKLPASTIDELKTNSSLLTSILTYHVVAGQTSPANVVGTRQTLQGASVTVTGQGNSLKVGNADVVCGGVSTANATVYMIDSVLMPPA
# Chain of UniProt P0A565 (P0A565 2-95 limits assumed): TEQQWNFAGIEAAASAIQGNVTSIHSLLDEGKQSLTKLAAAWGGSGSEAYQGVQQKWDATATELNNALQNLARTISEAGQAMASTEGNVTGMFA
substance,measurement,setting,value
Control -,optical density,[1],0.07 OD
same,optical density,[2],0.06 OD
same,optical density,[3],0.08 OD
same,optical density,[4],0.06 OD
same,optical density,[5],0.07 OD
same,optical density,[6],0.07 OD
